One molecule from US20220112249A1 (OXFORD UNIVERSITY INNOVATION, published 2022) can be followed below.

In the test the target is T1, fHbp V1.1 with PorA VR2 P1.16 loop in position 5 (P5) (Neisseria meningitidis, UniProt E6MV22 20-274).
T1 sequence: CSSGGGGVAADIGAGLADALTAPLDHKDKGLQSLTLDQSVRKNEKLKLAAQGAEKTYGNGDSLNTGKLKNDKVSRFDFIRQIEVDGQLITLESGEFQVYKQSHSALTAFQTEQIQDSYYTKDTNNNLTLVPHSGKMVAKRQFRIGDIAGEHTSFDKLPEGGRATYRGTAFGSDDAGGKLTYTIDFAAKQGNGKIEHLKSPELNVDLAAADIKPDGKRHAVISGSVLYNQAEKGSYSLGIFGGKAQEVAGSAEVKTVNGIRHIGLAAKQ
Briefly: SPR (BIAcore), fHbp:PorA coupled to the chip, CFH (fH67) flowed over. Background: In SPR one partner is held on a chip, and binding of the other changes the refractive index at the surface.

B1: Complement Factor H (CFH) domains 6 and 7 (other)
chain: TLKPCDYPDIKHGGLYHENMRRPYFPVAVGKYYSYYCDEHFETPSGSYWDHIHCTQDGWSPAVPCLRKCYFPYLENGYNQNYGRKFVQGKSIDVACHPGYALPKAQTTVTCMENGWSPTPRCI
notes: domain: fH67 (CFH domains 6-7); also called fH67
For B1, the binding result is “no binding (tested: 0.5-32 nM)”.
